According to IntAct's records for PubMed 31515488:

B1: Melanoma-associated antigen 4 (Homo sapiens), P43358 (parent)
chain: MSSEQKSQHCKPEEGVEAQEEALGLVGAQAPTTEEQEAAVSSSSPLVPGTLEEVPAAESAGPPQSPQGASALPTTISFTCWRQPNEGSSSQEEEGPSTSPDAESLFREALSNKVDELAHFLLRKYRAKELVTKAEMLERVIKNYKRCFPVIFGKASESLKMIFGIDVKEVDPASNTYTLVTCLGLSYDGLLGNNQIFPKTGLLIIVLGTIAMEGDSASEEEIWEELGVMGVYDGREHTVYGEPRKLLTQDWVQENYLEYRQVPGSNPARYEFLWGPRALAETSYVKVLEHVVRVNARVRIAYPSLREAALLEEEEGV
partner: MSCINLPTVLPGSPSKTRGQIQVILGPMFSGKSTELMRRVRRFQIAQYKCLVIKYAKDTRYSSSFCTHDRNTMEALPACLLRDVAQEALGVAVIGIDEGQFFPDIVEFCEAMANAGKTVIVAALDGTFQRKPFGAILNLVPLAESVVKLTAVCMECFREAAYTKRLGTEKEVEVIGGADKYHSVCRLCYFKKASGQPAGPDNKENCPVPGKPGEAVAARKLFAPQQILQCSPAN
B2: Protein-associating with the carboxyl-terminal domain of ezrin (Homo sapiens), Q8IZE3 (parent)
chain: MGSENSALKSYTLREPPFTLPSGLAVYPAVLQDGKFASVFVYKRENEDKVNKAAKHLKTLRHPCLLRFLSCTVEADGIHLVTERVQPLEVALETLSSAEVCAGIYDILLALIFLHDRGHLTHNNVCLSSVFVSEDGHWKLGGMETVCKVSQATPEFLRSIQSIRDPASIPPEEMSPEFTTLPECHGHARDAFSFGTLVESLLTILNEQVSADVLSSFQQTLHSTLLNPIPKCRPALCTLLSHDFFRNDFLEVVNFLKSLTLKSEEEKTEFFKFLLDRVSCLSEELIASRLVPLLLNQLVFAEPVAVKSFLPYLLGPKKDHAQGETPCLLSPALFQSRVIPVLLQLFEVHEEHVRMVLLSHIEAYVEHFTQEQLKKVILPQVLLGLRDTSDSIVAITLHSLAVLVSLLGPEVVVGGERTKIFKRTAPSFTKNTDLSLEDSPMCVVCSHHSQISPILENPFSSIFPKCFFSGSTPINSKKHIQRDYYNTLLQTGDPFSQPIKFPINGLSDVKNTSEDSENFPSSSKKSEEWPDWSEPEEPENQTVNIQIWPREPCDDVKSQCTTLDVEESSWDDCEPSSLDTKVNPGGGITATKPVTSGEQKPIPALLSLTEESMPWKSSLPQKISLVQRGDDADQIEPPKVSSQERPLKVPSELGLGEEFTIQVKKKPVKDPEMDWFADMIPEIKPSAAFLILPELRTEMVPKKDDVSPVMQFSSKFAAAEITEGEAEGWEEEGELNWEDNNW
partner: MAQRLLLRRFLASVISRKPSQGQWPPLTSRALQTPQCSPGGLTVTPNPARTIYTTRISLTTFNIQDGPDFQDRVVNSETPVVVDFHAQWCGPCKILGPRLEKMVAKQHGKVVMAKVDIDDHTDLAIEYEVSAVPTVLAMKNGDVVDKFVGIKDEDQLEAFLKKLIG
B3: Microtubule-associated tumor suppressor candidate 2 (Homo sapiens), Q5JR59-3 (parent)
chain: MGHCCCKPYNCLQCLDKTNESALVKEKELSIELANIRDEVAFHTAKCEKLQKEKEELERRFEDEVKRLGWQQQAELQELEERLQLQFEAEMARLQEEHGDQLLSIRCQHQEQVEDLTASHDAALLEMENNHTVAITILQDDHDHKVQELMSTHELEKKELEENFEKLRLSLQDQVDTLTFQSQSLRDRARRFEEALRKNTEEQLEIALAPYQHLEEDMKSLKQVLEMKNQQIHEQEKKILELEKLAEKNIILEEKIQVLQQQNEDLKARIDQNTVVTRQLSEENANLQEYVEKETQEKKRLSRTNEELLWKLQTGDPTSPIKLSPTSPVYRGSSSGPSSPARVSTTPR
partner: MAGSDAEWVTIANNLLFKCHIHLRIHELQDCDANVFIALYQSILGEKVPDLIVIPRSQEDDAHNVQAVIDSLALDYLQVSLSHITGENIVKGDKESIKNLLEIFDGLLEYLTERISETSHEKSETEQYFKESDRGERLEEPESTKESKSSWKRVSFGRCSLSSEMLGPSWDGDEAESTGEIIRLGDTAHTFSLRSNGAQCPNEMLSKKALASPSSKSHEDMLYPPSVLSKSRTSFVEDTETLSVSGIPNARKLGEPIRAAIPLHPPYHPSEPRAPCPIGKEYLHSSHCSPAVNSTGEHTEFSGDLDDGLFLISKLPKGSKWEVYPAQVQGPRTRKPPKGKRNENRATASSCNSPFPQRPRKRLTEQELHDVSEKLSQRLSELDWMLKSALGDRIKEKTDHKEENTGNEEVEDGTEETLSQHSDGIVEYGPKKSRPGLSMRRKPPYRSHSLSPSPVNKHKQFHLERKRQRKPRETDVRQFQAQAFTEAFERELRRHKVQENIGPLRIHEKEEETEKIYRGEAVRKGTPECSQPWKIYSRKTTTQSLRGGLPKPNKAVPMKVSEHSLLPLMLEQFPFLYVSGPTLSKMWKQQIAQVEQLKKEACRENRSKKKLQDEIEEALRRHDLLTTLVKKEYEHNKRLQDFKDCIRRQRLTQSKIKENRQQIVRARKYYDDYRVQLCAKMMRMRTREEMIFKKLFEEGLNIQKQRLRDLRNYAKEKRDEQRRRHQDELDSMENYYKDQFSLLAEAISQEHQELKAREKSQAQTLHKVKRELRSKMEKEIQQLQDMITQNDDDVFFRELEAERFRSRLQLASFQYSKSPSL
B4: G patch domain and ankyrin repeat-containing protein 1 (Homo sapiens), O95872 (parent)
chain: MSRPLLITFTPATDPSDLWKDGQQQPQPEKPESTLDGAAARAFYEALIGDESSAPDSQRSQTEPARERKRKKRRIMKAPAAEAVAEGASGRHGQGRSLEAEDKMTHRILRAAQEGDLPELRRLLEPHEAGGAGGNINARDAFWWTPLMCAARAGQGAAVSYLLGRGAAWVGVCELSGRDAAQLAEEAGFPEVARMVRESHGETRSPENRSPTPSLQYCENCDTHFQDSNHRTSTAHLLSLSQGPQPPNLPLGVPISSPGFKLLLRGGWEPGMGLGPRGEGRANPIPTVLKRDQEGLGYRSAPQPRVTHFPAWDTRAVAGRERPPRVATLSWREERRREEKDRAWERDLRTYMNLEF
B5: Scaffold protein ILK (Homo sapiens), Q13418 (parent)
chain: MDDIFTQCREGNAVAVRLWLDNTENDLNQGDDHGFSPLHWACREGRSAVVEMLIMRGARINVMNRGDDTPLHLAASHGHRDIVQKLLQYKADINAVNEHGNVPLHYACFWGQDQVAEDLVANGALVSICNKYGEMPVDKAKAPLRELLRERAEKMGQNLNRIPYKDTFWKGTTRTRPRNGTLNKHSGIDFKQLNFLTKLNENHSGELWKGRWQGNDIVVKVLKVRDWSTRKSRDFNEECPRLRIFSHPNVLPVLGACQSPPAPHPTLITHWMPYGSLYNVLHEGTNFVVDQSQAVKFALDMARGMAFLHTLEPLIPRHALNSRSVMIDEDMTARISMADVKFSFQCPGRMYAPAWVAPEALQKKPEDTNRRSADMWSFAVLLWELVTREVPFADLSNMEIGMKVALEGLRPTIPPGISPHVCKLMKICMNEDPAKRPKFDMIVPILEKMQDK
partner: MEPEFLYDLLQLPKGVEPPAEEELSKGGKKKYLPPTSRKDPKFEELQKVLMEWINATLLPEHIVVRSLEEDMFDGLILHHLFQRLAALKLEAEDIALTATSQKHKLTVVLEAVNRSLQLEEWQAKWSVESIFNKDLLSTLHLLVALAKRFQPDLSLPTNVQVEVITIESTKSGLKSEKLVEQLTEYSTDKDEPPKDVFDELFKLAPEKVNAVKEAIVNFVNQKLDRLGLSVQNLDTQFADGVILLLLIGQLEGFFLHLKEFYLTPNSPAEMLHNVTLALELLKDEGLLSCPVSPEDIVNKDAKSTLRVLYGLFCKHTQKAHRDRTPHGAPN
B6: Tyrosine-protein phosphatase non-receptor type 9 (Homo sapiens), P43378 (parent)
chain: MEPATAPRPDMAPELTPEEEQATKQFLEEINKWTVQYNVSPLSWNVAVKFLMARKFDVLRAIELFHSYRETRRKEGIVKLKPHEEPLRSEILSGKFTILNVRDPTGASIALFTARLHHPHKSVQHVVLQALFYLLDRAVDSFETQRNGLVFIYDMCGSNYANFELDLGKKVLNLLKGAFPARLKKVLIVGAPIWFRVPYSIISLLLKDKVRERIQILKTSEVTQHLPRECLPENLGGYVKIDLATWNFQFLPQVNGHPDPFDEIILFSLPPALDWDSVHVPGPHAMTIQELVDYVNARQKQGIYEEYEDIRRENPVGTFHCSMSPGNLEKNRYGDVPCLDQTRVKLTKRSGHTQTDYINASFMDGYKQKNAYIGTQGPLENTYRDFWLMVWEQKVLVIVMTTRFEEGGRRKCGQYWPLEKDSRIRFGFLTVTNLGVENMNHYKKTTLEIHNTEERQKRQVTHFQFLSWPDYGVPSSAASLIDFLRVVRNQQSLAVSNMGARSKGQCPEPPIVVHCSAGIGRTGTFCSLDICLAQLEELGTLNVFQTVSRMRTQRAFSIQTPEQYYFCYKAILEFAEKEGMVSSGQNLLAVESQ

Variants of: B1
Details: with kith_human TK1, P04183

Variant | effect of a mutation on the interaction
S41F | with no effect

Variants of: B2
Details: with thiom_human TXN2, Q99757

Variant | effect of a mutation on the interaction
L625F | with no effect
Q621R | with no effect

Variants of: B3
Details: with cep95_human CEP95, Q96GE4

Variant | effect of a mutation on the interaction
A89V | with no effect

Variants of: B4
Details: with tri23_human TRIM23, P36406
tri23_human TRIM23, P36406, sequence (P36406 whole entry): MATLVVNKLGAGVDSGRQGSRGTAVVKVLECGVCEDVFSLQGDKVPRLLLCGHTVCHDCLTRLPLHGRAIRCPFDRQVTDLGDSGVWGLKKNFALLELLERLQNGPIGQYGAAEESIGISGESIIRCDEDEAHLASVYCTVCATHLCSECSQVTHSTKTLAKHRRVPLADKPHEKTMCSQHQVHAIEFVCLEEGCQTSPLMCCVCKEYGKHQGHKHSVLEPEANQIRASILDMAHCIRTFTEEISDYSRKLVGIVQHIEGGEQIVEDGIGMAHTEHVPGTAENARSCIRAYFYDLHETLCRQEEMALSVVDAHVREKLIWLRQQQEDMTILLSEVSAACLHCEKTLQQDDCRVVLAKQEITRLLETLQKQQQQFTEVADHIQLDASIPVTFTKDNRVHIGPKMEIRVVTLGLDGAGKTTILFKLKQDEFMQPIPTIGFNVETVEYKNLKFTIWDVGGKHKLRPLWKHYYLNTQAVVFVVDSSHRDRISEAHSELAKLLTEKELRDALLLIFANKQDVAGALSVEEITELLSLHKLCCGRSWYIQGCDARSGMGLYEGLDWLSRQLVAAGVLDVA

Variant | effect of a mutation on the interaction
D56E | with no effect

Variants of: B4
Details: with pnma1_human PNMA1, Q8ND90
pnma1_human PNMA1, Q8ND90, sequence (Q8ND90 whole entry): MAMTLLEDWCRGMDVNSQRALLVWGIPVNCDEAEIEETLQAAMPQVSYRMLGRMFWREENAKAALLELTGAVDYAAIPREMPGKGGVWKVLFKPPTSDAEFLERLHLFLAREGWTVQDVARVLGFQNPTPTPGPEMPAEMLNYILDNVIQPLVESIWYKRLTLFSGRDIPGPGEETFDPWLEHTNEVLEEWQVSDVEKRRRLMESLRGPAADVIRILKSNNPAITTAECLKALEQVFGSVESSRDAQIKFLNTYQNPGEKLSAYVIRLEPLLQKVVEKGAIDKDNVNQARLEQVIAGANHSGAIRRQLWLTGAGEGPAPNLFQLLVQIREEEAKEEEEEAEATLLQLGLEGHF

Variant | effect of a mutation on the interaction
R41L | with no effect

Variants of: B5
Details: with parvg_human PARVG

Variant | effect of a mutation on the interaction
V340G | with no effect

Variants of: B6
Details: with mal2_human MAL2, Q969L2
mal2_human MAL2, Q969L2, sequence (Q969L2 whole entry): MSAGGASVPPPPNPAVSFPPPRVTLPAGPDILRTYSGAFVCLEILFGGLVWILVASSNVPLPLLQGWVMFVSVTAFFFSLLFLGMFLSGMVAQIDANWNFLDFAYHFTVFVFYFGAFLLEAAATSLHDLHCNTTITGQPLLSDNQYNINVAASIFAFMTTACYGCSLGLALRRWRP

Variant | effect of a mutation on the interaction
R72Q | disrupting interaction strength

Variants of: B6
Details: with rtn3_human RTN3, O95197
rtn3_human RTN3, O95197, sequence (O95197 whole entry): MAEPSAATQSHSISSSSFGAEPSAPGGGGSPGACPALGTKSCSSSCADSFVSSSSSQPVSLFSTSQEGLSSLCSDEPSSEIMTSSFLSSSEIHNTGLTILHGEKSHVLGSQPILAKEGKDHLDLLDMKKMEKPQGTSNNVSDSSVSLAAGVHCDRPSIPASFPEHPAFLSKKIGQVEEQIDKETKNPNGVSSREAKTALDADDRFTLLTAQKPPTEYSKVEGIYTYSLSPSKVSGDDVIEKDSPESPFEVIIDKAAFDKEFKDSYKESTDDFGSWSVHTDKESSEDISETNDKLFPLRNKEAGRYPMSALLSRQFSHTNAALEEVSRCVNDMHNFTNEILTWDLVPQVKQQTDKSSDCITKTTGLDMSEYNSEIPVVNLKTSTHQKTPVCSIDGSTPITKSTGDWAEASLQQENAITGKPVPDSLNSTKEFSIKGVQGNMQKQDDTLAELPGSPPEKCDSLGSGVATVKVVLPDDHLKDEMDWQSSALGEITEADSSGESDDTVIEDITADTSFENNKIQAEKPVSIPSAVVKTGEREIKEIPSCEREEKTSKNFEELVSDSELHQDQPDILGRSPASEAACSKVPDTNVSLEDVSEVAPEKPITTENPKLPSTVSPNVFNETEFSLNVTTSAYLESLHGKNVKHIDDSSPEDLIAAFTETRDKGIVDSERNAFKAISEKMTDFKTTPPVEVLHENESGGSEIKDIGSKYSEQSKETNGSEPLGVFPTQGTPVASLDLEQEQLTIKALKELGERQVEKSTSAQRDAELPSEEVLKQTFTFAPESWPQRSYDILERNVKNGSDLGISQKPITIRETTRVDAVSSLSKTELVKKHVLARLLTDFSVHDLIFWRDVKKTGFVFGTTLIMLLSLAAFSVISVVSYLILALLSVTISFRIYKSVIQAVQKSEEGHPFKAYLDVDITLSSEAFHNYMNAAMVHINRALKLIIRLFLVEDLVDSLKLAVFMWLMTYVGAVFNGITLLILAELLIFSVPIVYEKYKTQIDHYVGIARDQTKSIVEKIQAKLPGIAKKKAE

Variant | effect of a mutation on the interaction
R72Q | with no effect

Variants of: B6
Details: with atrap_human AGTRAP

Variant | effect of a mutation on the interaction
R72Q | with no effect
